Assay [1] deals with HA-InR^intra (intracellular domain of insulin receptor including the kinase domain) (Drosophila) (UniProt P09208). The assay can be described thus: proximity ligation.
Assay [2] has the same target. The assay can be described thus: proximity ligation. This is another data set of the same source.

Like-named read-outs stand apart in the source and are kept apart here.

Sequence of UniProt P09208 (P09208 1086-2144): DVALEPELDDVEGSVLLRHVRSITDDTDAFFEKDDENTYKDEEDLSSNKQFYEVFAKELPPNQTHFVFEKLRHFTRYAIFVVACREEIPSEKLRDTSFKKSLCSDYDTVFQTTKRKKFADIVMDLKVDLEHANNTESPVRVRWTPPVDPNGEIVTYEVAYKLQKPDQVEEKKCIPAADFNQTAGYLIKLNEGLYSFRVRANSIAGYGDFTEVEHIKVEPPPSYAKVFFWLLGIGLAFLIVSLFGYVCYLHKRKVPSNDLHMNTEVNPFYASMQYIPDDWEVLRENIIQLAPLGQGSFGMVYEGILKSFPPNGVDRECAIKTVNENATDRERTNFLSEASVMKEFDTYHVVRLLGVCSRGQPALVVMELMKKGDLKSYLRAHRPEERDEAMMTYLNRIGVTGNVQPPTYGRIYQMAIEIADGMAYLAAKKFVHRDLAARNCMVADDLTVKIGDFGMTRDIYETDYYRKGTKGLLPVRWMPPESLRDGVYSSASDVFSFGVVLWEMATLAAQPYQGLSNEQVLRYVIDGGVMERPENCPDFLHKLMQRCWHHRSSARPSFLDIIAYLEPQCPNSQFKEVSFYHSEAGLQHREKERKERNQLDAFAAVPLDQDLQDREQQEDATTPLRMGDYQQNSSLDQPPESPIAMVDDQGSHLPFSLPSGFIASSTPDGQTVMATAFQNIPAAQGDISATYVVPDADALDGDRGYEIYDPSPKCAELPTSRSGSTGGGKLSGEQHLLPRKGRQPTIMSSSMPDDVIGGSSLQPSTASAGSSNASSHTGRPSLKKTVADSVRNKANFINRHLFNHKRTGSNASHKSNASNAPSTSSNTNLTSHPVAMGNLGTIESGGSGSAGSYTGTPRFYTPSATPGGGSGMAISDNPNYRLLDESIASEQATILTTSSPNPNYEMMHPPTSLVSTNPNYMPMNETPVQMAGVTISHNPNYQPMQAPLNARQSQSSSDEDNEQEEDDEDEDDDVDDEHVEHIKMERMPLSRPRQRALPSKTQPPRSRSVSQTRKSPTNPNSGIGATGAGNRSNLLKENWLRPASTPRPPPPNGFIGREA

In assay [1], “Myc-Hsp83 (heat shock protein 83) (from UniProt P02828 1-717) (natural protein)” had a PLA foci per cell (average) (PLA foci per cell) of 12.8, a percent of cells with PLA signal of 90.9%, a percent of cells with moderate PLA signals (11-30 foci) of 41.8% and a percent of cells with strong PLA signals (>30 foci) of 12.7%. This molecule showed a percent of cells with weak PLA signals (≤10 foci) in assay [1] of 36.4%.

B1: Myc-Cdc37 (cell division cycle 37) (natural protein)
chain: MVDYSKWKNIEISDDEDDTHPNIDTPSLFRWRHQARVERMAEMDHEKDELKKKRQSYQARLMDVKERISKKDGDEEALKKELEKIEAEGKELDRIESEMIKKEKKTPWNVDTISKPGFEKTVINKKAGRKPDENLSEEEREQRMKQFVKENEKLCQQYGMLRKYDDSKRFLQEHLHLVGEETANYLVIWSINLEMEEKHELMAHVAHQCICMQYILELAKQLDVDPRACVSSFFSKIQHCHPEYRAQFDSEIEGFKGRIQKRAQEKIQEAIAQAEEEERKERLGPGGLDPADVFESLPDELKACFESRDVELLQKTIAAMPVDVAKLHMKRCVDSGLWVPNAADLEGDKKEEDDSDDVAGGEEKTDDAKSESAAKEEPIYTGVSTEDVD
In assay [2], B1 returned a percent of cells with PLA signal of 86.8%, a percent of cells with moderate PLA signals of 31.4%, a percent of cells with strong PLA signals of 4.1% and a percent of cells with weak PLA signals of 51.3%.
